Reference: paper PMC12483565, “CBFβ-SMMHC–driven leukemogenesis requires enhanced RUNX1-DNA binding affinity in mice”

Biological target: RUNX1c-R201Q (human, UniProt Q01196-8 1-480, R201Q)
Assay: EMSA; BLI: 20 mM Tris-HCl pH 8.0, 150 mM KCl, 1 mM EDTA, 1 mM DTT, 0.02% Tween-20, with 800 nM CBFβ or 400 nM CBFβ-SMMHC/mutant, preincubated 37 °C 30 min; EMSA: room temperature 30 min, 4-12% TBE gel, 1x TBE
Conditions: protein: ivt; label: IRDye700

Sequence of RUNX1c-R201Q (Q01196 other isoform, or with tags, fused parts or gaps R201Q | R201Q R201Q): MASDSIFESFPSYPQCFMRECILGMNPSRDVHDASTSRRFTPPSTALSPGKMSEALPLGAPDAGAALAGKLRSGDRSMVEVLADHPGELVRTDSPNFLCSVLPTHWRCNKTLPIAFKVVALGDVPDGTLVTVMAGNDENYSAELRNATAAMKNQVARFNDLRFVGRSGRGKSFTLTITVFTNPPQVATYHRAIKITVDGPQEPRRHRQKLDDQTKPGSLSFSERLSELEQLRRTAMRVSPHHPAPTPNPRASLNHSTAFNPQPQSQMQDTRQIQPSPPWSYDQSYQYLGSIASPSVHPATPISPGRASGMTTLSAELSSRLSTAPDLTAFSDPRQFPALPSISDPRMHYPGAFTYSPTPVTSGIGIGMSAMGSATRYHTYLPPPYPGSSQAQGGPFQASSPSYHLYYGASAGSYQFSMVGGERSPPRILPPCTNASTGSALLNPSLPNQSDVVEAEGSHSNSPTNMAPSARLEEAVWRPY

B1: CSF1R promoter probe (EMSA) (dsDNA)
DNA 1: CAAACTCTGTGGTTGCCTTG
DNA 2: CAAGGCAACCACAGAGTTTG
binding result: no binding
